In article PMC13223232, “Structural basis for TRF2-RAP1 recruitment by EBNA1 at the EBV origin of replication” (Scientific Reports, 2025):

B2: full length TRF2/Rap1 complex (complex)
chain 1: MAAGAGTAGPASGPGVVRDPAASQPRKRPGREGGEGARRSDTMAGGGGSSDGSGRAAGRRASRSSGRARRGRHEPGLGGPAERGAGEARLEEAVNRWVLKFYFHEALRAFRGSRYGDFRQIRDIMQALLVRPLGKEHTVSRLLRVMQCLSRIEEGENLDCSFDMEAELTPLESAINVLEMIKTEFTLTEAVVESSRKLVKEAAVIICIKNKEFEKASKILKKHMSKDPTTQKLRNDLLNIIREKNLAHPVIQNFSYETFQQKMLRFLESHLDDAEPYLLTMAKKALKSESAASSTGKEDKQPAPGPVEKPPREPARQLRNPPTTIGMMTLKAAFKTLSGAQDSEAAFAKLDQKDLVLPTQALPASPALKNKRPRKDENESSAPADGEGGSELQPKNKRMTISRLVLEEDSQSTEPSAGLNSSQEAASAPPSKPTVLNQPLPGEKNPKVPKGKWNSSNGVEEKETWVEEDELFQVQAAPDEDSTTNITKKQKWTVEESEWVKAGVQKYGEGNWAAISKNYPFVNRTAVMIKDRWRTMKRLGMN
chain 2: MAEAMDLGKDPNGPTHSSTLFVRDDGSSMSFYVRPSPAKRRLSTLILHGGGTVCRVQEPGAVLLAQPGEALAEASGDFISTQYILDCVERNERLELEAYRLGPASAADTGSEAKPGALAEGAAEPEPQRHAGRIAFTDADDVAILTYVKENARSPSSVTGNALWKAMEKSSLTQHSWQSLKDRYLKHLRGQEHKYLLGDAPVSPSSQKLKRKAEEDPEAADSGEPQNKRTPDLPEEEYVKEEIQENEEAVKKMLVEATREFEEVVVDESPPDFEIHITMCDDDPPTPEEDSETQPDEEEEEEEEKVSQPEVGAAIKIIRQLMEKFNLDLSTVTQAFLKNSGELEATSAFLASGQRADGYPIWSRQDDIDLQKDDEDTREALVKKFGAQNVARRIEFRKK
notes: also called pre-assembled TRF2-Rap1 complex; source: E. coli, each purified (Ni-NTA, SEC); pre-assembled complex purified by glycerol gradient; not shown: His6-SUMO, N-terminal, cleaved

Legend:
[1] = molecular target: the molecule itself; experiment: cryo-EM structure; ½ DS + EBNA1 DBD + TRF2 + Rap1 (1 : 4 : 2.5 : 2.5), GraFix (10-30% glycerol, 0.125% glutaraldehyde); estimated 7.1 Å reconstruction
full-length Rap1 = molecular target: T1, full-length Rap1 (human, UniProt Q9NYB0 1-399); experiment: cross-linking; zero-length EDC/Sulfo-NHS cross-linking with LC-MS/MS; complex mixed 1 ½ DS DNA : 4 EBNA1 401–607 : 2.5 TRF2 : 2.5 Rap1, glycerol-gradient purified, 1 mg/mL in 20 mM MES pH 6.8, 100 mM NaCl, 1 mM MgCl2, 10 µM ZnCl2, 0.5 mM TCEP; 10 mM crosslinker, room temperature, 2 h; conditions: both partners purified
T1 construct: also called TERF2IP; source: E. coli, purified (Ni-NTA, SEC); not shown: His6-SUMO, N-terminal, cleaved
T1 sequence (looked up): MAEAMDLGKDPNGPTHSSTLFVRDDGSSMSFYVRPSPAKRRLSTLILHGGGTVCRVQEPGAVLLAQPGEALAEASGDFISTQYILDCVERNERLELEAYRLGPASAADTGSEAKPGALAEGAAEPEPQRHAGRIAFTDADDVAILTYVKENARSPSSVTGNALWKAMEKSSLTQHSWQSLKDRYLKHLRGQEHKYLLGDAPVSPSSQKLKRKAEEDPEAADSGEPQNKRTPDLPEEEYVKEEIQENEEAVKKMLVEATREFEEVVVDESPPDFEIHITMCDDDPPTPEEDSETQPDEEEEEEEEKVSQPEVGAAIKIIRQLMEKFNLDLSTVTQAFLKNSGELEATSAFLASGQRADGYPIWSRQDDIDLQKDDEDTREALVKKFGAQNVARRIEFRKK

full-length TRF2 = molecular target: T2, full-length TRF2 (human, UniProt Q15554 1-542); experiment: as above; conditions: both partners purified
T2 construct: also called TERF2; source: E. coli, purified (Ni-NTA, SEC); not shown: His6-SUMO, N-terminal, cleaved
T2 sequence (looked up): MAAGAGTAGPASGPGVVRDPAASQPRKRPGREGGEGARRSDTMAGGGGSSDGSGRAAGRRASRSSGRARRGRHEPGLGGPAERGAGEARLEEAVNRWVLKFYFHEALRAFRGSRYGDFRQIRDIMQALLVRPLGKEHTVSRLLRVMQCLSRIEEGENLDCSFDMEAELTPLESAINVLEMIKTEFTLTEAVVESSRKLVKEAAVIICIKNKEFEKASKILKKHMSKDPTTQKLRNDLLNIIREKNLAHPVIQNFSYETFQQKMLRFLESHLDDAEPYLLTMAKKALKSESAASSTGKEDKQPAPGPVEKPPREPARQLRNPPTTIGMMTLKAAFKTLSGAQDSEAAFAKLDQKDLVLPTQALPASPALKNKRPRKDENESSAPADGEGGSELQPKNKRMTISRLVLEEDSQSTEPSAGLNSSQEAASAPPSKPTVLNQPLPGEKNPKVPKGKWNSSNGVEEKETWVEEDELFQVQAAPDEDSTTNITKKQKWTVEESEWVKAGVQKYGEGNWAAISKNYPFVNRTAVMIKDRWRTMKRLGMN

[2] = molecular target: B2; experiment: native gel or EMSA; IRD700-labelled 60 bp ½ DS DNA probe (5 nM); Rap1, TRF2 or TRF2 + Rap1 titrated up to 480 nM without EBNA1, with EBNA1 401–607 or with EBNA1 Δ90–325; 10 mM HEPES pH 7.5, 300 mM KCl, 5 mM MgCl2, 1 mM ZnCl2, 5 mM BME, 0.05% NP-40, 5% glycerol; 1.4% agarose gel; all proteins meet on the DNA; conditions: both partners purified
[3] = molecular target: T3, EBNA1 Δ90–325 3x (E495A D499A E500A) (Epstein-Barr virus, UniProt P03211 1-641, Δ90–325 | E495A | D499A | E500A); experiment: native gel or EMSA; pre-assembled TRF2-Rap1 complex (glycerol-gradient purified) serially diluted and added to pre-assembled ½ DS-EBNA1 complex (20 nM EBNA1 Δ90–325 WT, 3x or 8x, 5 nM ½ DS DNA); binding buffer with 300 mM KCl, pH 7.5; conditions: both partners purified
T3 construct: also called 3x mutant EBNA1; source: E. coli, purified (Ni-NTA, SEC); not shown: His6-SUMO, N-terminal, cleaved
T3 sequence: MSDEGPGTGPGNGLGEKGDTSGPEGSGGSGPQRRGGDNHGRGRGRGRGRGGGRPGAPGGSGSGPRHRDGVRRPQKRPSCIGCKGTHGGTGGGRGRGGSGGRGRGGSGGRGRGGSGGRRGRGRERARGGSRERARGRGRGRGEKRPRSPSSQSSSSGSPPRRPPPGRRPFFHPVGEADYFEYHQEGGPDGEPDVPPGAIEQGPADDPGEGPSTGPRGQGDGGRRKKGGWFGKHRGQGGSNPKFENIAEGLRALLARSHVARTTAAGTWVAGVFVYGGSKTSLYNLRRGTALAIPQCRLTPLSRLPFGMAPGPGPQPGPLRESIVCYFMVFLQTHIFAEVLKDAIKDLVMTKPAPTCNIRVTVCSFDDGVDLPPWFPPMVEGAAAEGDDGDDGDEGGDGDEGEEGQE

[4] = molecular target: EBNA1 DBD 401-607;TRF2 full length;Rap1 full length (Epstein-Barr virus;Homo sapiens?;Homo …, UniProt P03211;Q15554;Q9NYB0 401-607;1-542;1-399, ||); experiment: EMSA; TRF2/Rap1 titrated with EBNA1 401-607; binding increased roughly twofold; EMSA: 10 mM HEPES pH 7.5, 300 mM KCl (100 mM for TRFH), 5 mM MgCl2, 1 mM ZnCl2, 5 mM BME, 0.05% NP-40, 5% glycerol; 5 nM probe; 20 nM EBNA1 in TRF2/Rap1 titrations; 1.4% agarose; temperature not stated; conditions: protein: recombinant;recombinant;recombinant; label: 5'-IRD700 on both strands (EMSA); text calls it 60 bp)
[5] = molecular target: TRF2 full length;Rap1 full length (Homo sapiens?;Homo sapiens?, UniProt Q15554;Q9NYB0 1-542;1-399, |); experiment: EMSA; discrete bandshift, no EBNA1; EMSA: 10 mM HEPES pH 7.5, 300 mM KCl (100 mM for TRFH), 5 mM MgCl2, 1 mM ZnCl2, 5 mM BME, 0.05% NP-40, 5% glycerol; 5 nM probe; 20 nM EBNA1 in TRF2/Rap1 titrations; 1.4% agarose; temperature not stated; conditions: protein: recombinant;recombinant; tags: His6-SUMO (N-terminal, cleaved by ULP1);His6-SUMO (N-terminal, cleaved by ULP1); chain copies: 2;2; label: 5'-IRD700 on both strands (EMSA); text calls it 60 bp)
[6] = molecular target: EBNA1 459-607;TRF2 TRFH domain (Epstein-Barr virus;Homo sapiens?, UniProt P03211;Q15554 459-607;85-287, |); experiment: EMSA; clear TRFH supershift; EMSA: 10 mM HEPES pH 7.5, 300 mM KCl (100 mM for TRFH), 5 mM MgCl2, 1 mM ZnCl2, 5 mM BME, 0.05% NP-40, 5% glycerol; 5 nM probe; 20 nM EBNA1 in TRF2/Rap1 titrations; 1.4% agarose; temperature not stated; conditions: protein: recombinant;recombinant; tags: ;GST (N-terminal); chain copies: 4;2; label: 5'-IRD700 on both strands (EMSA); text calls it 60 bp)
[7] = molecular target: EBNA1 DBD 401-607;TRF2 TRFH domain (Epstein-Barr virus;Homo sapiens?, UniProt P03211;Q15554 401-607;85-287, |); experiment: as above; conditions: protein: recombinant;recombinant; tags: His6-SUMO (N-terminal, cleaved by ULP1);GST (N-terminal); chain copies: 4;2; label: 5'-IRD700 on both strands (EMSA); text calls it 60 bp)
[8] = molecular target: EBNA1 DBD 401-607;TRF2 full length (Epstein-Barr virus;Homo sapiens?, UniProt P03211;Q15554 401-607;1-542, |); experiment: EMSA; TRF2 titrated with EBNA1 401-607; binding increased roughly twofold; EMSA: 10 mM HEPES pH 7.5, 300 mM KCl (100 mM for TRFH), 5 mM MgCl2, 1 mM ZnCl2, 5 mM BME, 0.05% NP-40, 5% glycerol; 5 nM probe; 20 nM EBNA1 in TRF2/Rap1 titrations; 1.4% agarose; temperature not stated; conditions: protein: recombinant;recombinant; tags: His6-SUMO (N-terminal, cleaved by ULP1);His6-SUMO (N-terminal, cleaved by ULP1); chain copies: 4;2; label: 5'-IRD700 on both strands (EMSA); text calls it 60 bp)
Rap1 full length = molecular target: T4, Rap1 full length (UniProt Q9NYB0 1-399); experiment: EMSA; up to 480 nM, no EBNA1; EMSA: 10 mM HEPES pH 7.5, 300 mM KCl (100 mM for TRFH), 5 mM MgCl2, 1 mM ZnCl2, 5 mM BME, 0.05% NP-40, 5% glycerol; 5 nM probe; 20 nM EBNA1 in TRF2/Rap1 titrations; 1.4% agarose; temperature not stated; conditions: protein: recombinant; tags: His6-SUMO (N-terminal, cleaved by ULP1); label: 5'-IRD700 on both strands (EMSA); text calls it 60 bp)
T4 sequence: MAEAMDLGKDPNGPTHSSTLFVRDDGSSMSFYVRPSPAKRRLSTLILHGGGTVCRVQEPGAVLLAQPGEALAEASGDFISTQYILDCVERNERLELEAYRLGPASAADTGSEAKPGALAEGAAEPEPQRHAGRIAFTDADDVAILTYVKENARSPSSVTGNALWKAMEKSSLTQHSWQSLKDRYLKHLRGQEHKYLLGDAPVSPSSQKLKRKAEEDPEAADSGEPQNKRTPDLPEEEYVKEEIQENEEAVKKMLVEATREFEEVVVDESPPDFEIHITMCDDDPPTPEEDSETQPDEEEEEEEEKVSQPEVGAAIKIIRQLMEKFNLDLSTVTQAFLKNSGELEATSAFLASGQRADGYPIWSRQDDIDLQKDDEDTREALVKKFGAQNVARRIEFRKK

B1: EBNA1 DNA binding domain (DBD) aa 401–607 (domain or fragment)
chain: GRRPFFHPVGEADYFEYHQEGGPDGEPDVPPGAIEQGPADDPGEGPSTGPRGQGDGGRRKKGGWFGKHRGQGGSNPKFENIAEGLRALLARSHVERTTDEGTWVAGVFVYGGSKTSLYNLRRGTALAIPQCRLTPLSRLPFGMAPGPGPQPGPLRESIVCYFMVFLQTHIFAEVLKDAIKDLVMTKPAPTCNIRVTVCSFDDGVDLP
notes: also called EBNA1 DBD; EBNA1 401–607; source: E. coli, purified (Ni-NTA, SEC); not shown: His6-SUMO, N-terminal, cleaved
B1: binds [1]; binds (full-length Rap1); binds (full-length TRF2). B1: binds [2].

With B2 the “fold weaker binding than with WT EBNA1” value [3] was about 2 fold.

B3: ½DS (EBV oriP dyad symmetry half) (dsDNA)
DNA 1: TAACCCTAATTCGATAGCATATGCTTCCCGTTGGGTAACATATGCTATTGAATTAGGGTTAG
DNA 2: CTAACCCTAATTCAATAGCATATGTTACCCAACGGGAAGCATATGCTATCGAATTAGGGTTA
B3: binds [4]; binds [5]; binds [6]. B3: binds [7]; binds [8]; no binding (Rap1 full length).
